Measured values from publication PMC5414288, “^99mTc-radiolabeled GE11-modified peptide for ovarian tumor targeting” (DARU Journal of Pharmaceutical Sciences, 2017).

Experiments:
[1] = Biodistribution study in normal mice; format: in vivo; settings: normal female NMRI mice, 1 μg i.v., mean ± SD, n = 4
Protocol: Normal female NMRI mice (20–30 g, Mazandaran animal center institute, Sari, Iran) were used in this study and randomly divided into 3 groups of 4. 100 μL of the solution containing 1 μg of the radiolabeled peptide was intravenously injected to the tail vein of each mouse. Mice were euthanized through intraperitoneal injection of ketamine and xylazine at 1, 4 and 24 h after injection. Blood was collected from the heart after deep anesthesia by a syringe which had been washed with heparin. Thereafter, organ samples including; lungs, stomach, liver, kidneys, bone, muscle, salivary glands, heart, spleen and intestines were removed, weighted and the radioactivity of each sample was measured. The tissue uptake of all organs except intestine was calculated as percent of injected dose per gram tissue (% ID/g) and for the intestine was calculated as % ID of the whole sample.

[2] = tested on: SKOV3 human ovarian cancer xenografts; assay: Biodistribution study in nude mice bearing SKOV3 xenografts; format: in vivo; settings: female nude mice bearing SKOV3 xenograft, 1 μg i.v.; for Blood uptake / Bone uptake / Heart uptake / Intestine uptake / Kidney uptake / Liver uptake / Lung uptake / Muscle uptake / Spleen uptake / Stomach uptake / Tumor uptake / s.g & Th. (salivary gland and thyroid) uptake: mean ± SD
Protocol: The in vivo tumor-targeting of the radiolabeled peptide was studied in female nude mice bearing SKOV3 cancer xenografts. For tumor induction, 10 × 10^6 SKOV3 cells were subcutaneously injected into the right hind leg of nude mice and tumor was allowed to grow for about 4 weeks. In the day of experiment, the average tumor size was 0.63 ± 0.2 g and the mice were randomly divided into three groups of 4 mouse each. The mice were injected intravenously 1 μg of the radiolabelled peptide. At 1 h and 4 h after injection, the mice were sacrificed and the tumor and other tissues were dissected. Blocking experiment was also performed using three nude mice which were subjected to injection of the excess amount (500 μg/50 μl) of the unlabeled peptide 30 min before radioconjugate peptide injection.

[3] = Stability in human serum; format: in vitro ADME; settings: fresh human serum (100 μl to 20 μl reaction mixture), 37 °C, 4 h, acetonitrile/ethanol precipitation, RP-HPLC
Protocol: Serum stability of the peptide was also determined following addition of 100 μl of fresh human serum to 20 μl of the reaction mixture and incubation for 1 and 4 h at 37 °C. Plasma samples were then treated with 500 μl of a mixture of acetonitrile and ethanol (1:1), centrifuged (14,000 rpm, 6 min), filtered (0.22 μm) and degradation of the radiolabeled peptide was assessed in supernatant by RP-HPLC [24].

[4] = 4 h p.i., blocked with excess unlabeled peptide (500 μg) 0.5 h before, n = 3

With `CC[C@H](C)[C@H](NC(=O)[C@@H](NC(=O)[C@H](CC(N)=O)NC(=O)[C@H](CCC(N)=O)NC(=O)[C@@H]1CCCN1C(=O)[C@@H](NC(=O)[C@H](Cc1ccc(O)cc1)NC(=O)CNC(=O)[C@H](Cc1ccc(O)cc1)NC(=O)[C@H](Cc1c[nH]c2ccccc12)NC(=O)[C@H](Cc1c[nH]cn1)NC(=O)[C@H](Cc1ccc(O)cc1)NC(=O)[C@H](CO)NC(=O)[C@H](CO)NC(=O)[C@H](CO)NC(=O)c1ccc(NN)nc1)[C@@H](C)O)C(C)C)C(=O)O` [^99mTc-tricine-HYNIC-SSS-GE11, metal not drawn] as the compound, how does the Blood uptake ([1]; 1 h p.i.) read?
The Blood uptake was 0.84 ± 0.04 % ID/g.

What about the Bone uptake ([1]; 1 h p.i.) of the same compound?
Its Bone uptake is 0.97 ± 0.14 % ID/g.

What about the Heart uptake ([1]; 1 h p.i.) of the same compound?
Its Heart uptake is 0.76 ± 0.16 % ID/g.

What about the Kidney uptake ([1]; 1 h p.i.) of the same compound?
Its Kidney uptake is 24.5 ± 1.7 % ID/g.

And the Liver uptake ([1]; 1 h p.i.)?
Its Liver uptake is 2.88 ± 0.84 % ID/g.

What about the Lung uptake ([1]; 1 h p.i.) of the same compound?
The Lung uptake was 1.14 ± 0.63 % ID/g.

And the Muscle uptake ([1]; 1 h p.i.)?
Its Muscle uptake is 0.52 ± 0.14 % ID/g.

What about the Spleen uptake ([1]; 1 h p.i.) of the same compound?
Its Spleen uptake is 0.61 ± 0.14 % ID/g.

What about the Stomach uptake ([1]; 1 h p.i.) of the same compound?
The Stomach uptake was 0.91 ± 0.27 % ID/g.

And the “s.g & Th. (salivary gland and thyroid) uptake” value ([1]; 1 h p.i.)?
The value was 0.87 ± 0.15 % ID/g.

And the Blood uptake ([1]; 4 h p.i.)?
Its Blood uptake is “less than 1 % ID/g”.

What about the Bone uptake ([1]; 4 h p.i.) of the same compound?
Its Bone uptake is 0.57 ± 0.2 % ID/g.

What about the Heart uptake ([1]; 4 h p.i.) of the same compound?
The Heart uptake was 0.44 ± 0.18 % ID/g.

What about the Kidney uptake ([1]; 4 h p.i.) of the same compound?
The Kidney uptake was 17.5 ± 1.25 % ID/g.

And the Liver uptake ([1]; 4 h p.i.)?
Its Liver uptake is 2.05 ± 0.39 % ID/g.

What about the Lung uptake ([1]; 4 h p.i.) of the same compound?
The Lung uptake was 0.68 ± 0.23 % ID/g.

And the Muscle uptake ([1]; 4 h p.i.)?
The Muscle uptake was 0.23 ± 0.11 % ID/g.

What about the Spleen uptake ([1]; 4 h p.i.) of the same compound?
Its Spleen uptake is 0.41 ± 0.13 % ID/g.

And the Stomach uptake ([1]; 4 h p.i.)?
Its Stomach uptake is 0.57 ± 0.15 % ID/g.

And the “s.g & Th. (salivary gland and thyroid) uptake” value ([1]; 4 h p.i.)?
The value was 0.46 ± 0.22 % ID/g.

What about the Blood uptake ([1]; 4 h p.i., listed as 99mTc-Tricine-HYNIC-SSS-GE11) of the same compound?
The Blood uptake was 0.39 ± 0.11 % ID/g.

What about the Blood uptake ([1]; 24 h p.i.) of the same compound?
The Blood uptake was 0.18 ± 0.05 % ID/g.

What about the Bone uptake ([1]; 24 h p.i.) of the same compound?
Its Bone uptake is 0.28 ± 0.05 % ID/g.

And the Heart uptake ([1]; 24 h p.i.)?
The Heart uptake was 0.40 ± 0.2 % ID/g.

What about the Kidney uptake ([1]; 24 h p.i.) of the same compound?
The Kidney uptake was 3.55 ± 0.38 % ID/g.

What about the Liver uptake ([1]; 24 h p.i.) of the same compound?
Its Liver uptake is 0.33 ± 0.069 % ID/g.

What about the Lung uptake ([1]; 24 h p.i.) of the same compound?
The Lung uptake was 0.47 ± 0.09 % ID/g.

What about the Muscle uptake ([1]; 24 h p.i.) of the same compound?
Its Muscle uptake is 0.19 ± 0.05 % ID/g.

And the Spleen uptake ([1]; 24 h p.i.)?
Its Spleen uptake is 0.20 ± 0.06 % ID/g.

What about the Stomach uptake ([1]; 24 h p.i.) of the same compound?
Its Stomach uptake is 0.32 ± 0.19 % ID/g.

And the “s.g & Th. (salivary gland and thyroid) uptake” value ([1]; 24 h p.i.)?
Its value is 0.36 ± 0.12 % ID/g.

What about the Blood uptake ([2]; 1 h p.i., n = 4) of the same compound?
Its Blood uptake is 2.53 ± 0.51 % ID/g.

What about the Bone uptake ([2]; 1 h p.i., n = 4) of the same compound?
Its Bone uptake is 1.91 ± 0.53 % ID/g.

And the Heart uptake ([2]; 1 h p.i., n = 4)?
The Heart uptake was 2.40 ± 0.96 % ID/g.

What about the Intestine uptake ([2]; 1 h p.i., n = 4) of the same compound?
Its Intestine uptake is 8.38 ± 4.11 % ID/g.

And the Kidney uptake ([2]; 1 h p.i., n = 4)?
Its Kidney uptake is 64.95 ± 7.81 % ID/g.

What about the Liver uptake ([2]; 1 h p.i., n = 4) of the same compound?
Its Liver uptake is 6.93 ± 0.95 % ID/g.

What about the Lung uptake ([2]; 1 h p.i., n = 4) of the same compound?
Its Lung uptake is 3.39 ± 0.64 % ID/g.

What about the Muscle uptake ([2]; 1 h p.i., n = 4) of the same compound?
The Muscle uptake was 0.99 ± 0.21 % ID/g.

What about the Spleen uptake ([2]; 1 h p.i., n = 4) of the same compound?
Its Spleen uptake is 2.86 ± 0.17 % ID/g.

And the Stomach uptake ([2]; 1 h p.i., n = 4)?
Its Stomach uptake is 2.65 ± 0.66 % ID/g.

What about the Tumor uptake ([2]; 1 h p.i., n = 4) of the same compound?
The Tumor uptake was 2.33 ± 0.67 % ID/g.

What about the “s.g & Th. (salivary gland and thyroid) uptake” value ([2]; 1 h p.i., n = 4) of the same compound?
The value was 2.52 ± 0.82 % ID/g.

What about the “Tumor/Blood Ratio” value ([2]; 1 h p.i., n = 4) of the same compound?
Its value is 0.92.

And the “Tumor/Bone Ratio” value ([2]; 1 h p.i., n = 4)?
Its value is 1.2.

And the “Tumor/Muscle Ratio” value ([2]; 1 h p.i., n = 4)?
The value was 2.3.

What about the Blood uptake [2, 4] of the same compound?
Its Blood uptake is 0.99 ± 0.18 % ID/g.

What about the Bone uptake [2, 4] of the same compound?
The Bone uptake was 1.01 ± 0.11 % ID/g.

What about the Heart uptake [2, 4] of the same compound?
Its Heart uptake is 0.65 ± 0.1 % ID/g.

What about the Intestine uptake [2, 4] of the same compound?
The Intestine uptake was 3.83 ± 2.1 % ID/g.

And the Kidney uptake [2, 4]?
The Kidney uptake was 42.10 ± 4.39 % ID/g.

And the Liver uptake [2, 4]?
The Liver uptake was 3.28 ± 0.93 % ID/g.

What about the Lung uptake [2, 4] of the same compound?
Its Lung uptake is 1.24 ± 0.12 % ID/g.

And the Muscle uptake [2, 4]?
The Muscle uptake was 0.51 ± 0.07 % ID/g.

What about the Spleen uptake [2, 4] of the same compound?
Its Spleen uptake is 0.83 ± 0.1 % ID/g.

And the Stomach uptake [2, 4]?
Its Stomach uptake is 1.16 ± 0.11 % ID/g.

What about the Tumor uptake [2, 4] of the same compound?
The Tumor uptake was 0.93 ± 0.10 % ID/g.

And the “s.g & Th. (salivary gland and thyroid) uptake” value [2, 4]?
The value was 0.89 ± 0.16 % ID/g.

And the “Tumor/Blood Ratio” value [2, 4]?
Its value is 0.96.

And the “Tumor/Bone Ratio” value [2, 4]?
Its value is 0.92.

What about the “Tumor/Muscle Ratio” value [2, 4] of the same compound?
The value was 1.86.

And the Blood uptake ([2]; 4 h p.i., n = 4)?
The Blood uptake was 1.43 ± 0.18 % ID/g.

What about the Bone uptake ([2]; 4 h p.i., n = 4) of the same compound?
Its Bone uptake is 1.29 ± 0.29 % ID/g.

What about the Heart uptake ([2]; 4 h p.i., n = 4) of the same compound?
Its Heart uptake is 1.56 ± 0.37 % ID/g.

And the Intestine uptake ([2]; 4 h p.i., n = 4)?
Its Intestine uptake is 3.24 ± 0.9 % ID/g.

What about the Kidney uptake ([2]; 4 h p.i., n = 4) of the same compound?
The Kidney uptake was 57.90 ± 0.49 % ID/g.

What about the Liver uptake ([2]; 4 h p.i., n = 4) of the same compound?
Its Liver uptake is 4.64 ± 0.69 % ID/g.

And the Lung uptake ([2]; 4 h p.i., n = 4)?
Its Lung uptake is 1.79 ± 0.34 % ID/g.

What about the Muscle uptake ([2]; 4 h p.i., n = 4) of the same compound?
The Muscle uptake was 0.51 ± 0.14 % ID/g.

What about the Spleen uptake ([2]; 4 h p.i., n = 4) of the same compound?
Its Spleen uptake is 1.49 ± 0.32 % ID/g.

What about the Stomach uptake ([2]; 4 h p.i., n = 4) of the same compound?
Its Stomach uptake is 1.53 ± 0.16 % ID/g.

What about the Tumor uptake ([2]; 4 h p.i., n = 4) of the same compound?
The Tumor uptake was 1.66 ± 0.41 % ID/g.

And the “s.g & Th. (salivary gland and thyroid) uptake” value ([2]; 4 h p.i., n = 4)?
The value was 1.80 ± 0.21 % ID/g.

What about the “Tumor/Blood Ratio” value ([2]; 4 h p.i., n = 4) of the same compound?
The value was 1.17.

And the “Tumor/Bone Ratio” value ([2]; 4 h p.i., n = 4)?
Its value is 1.3.

And the “Tumor/Muscle Ratio” value ([2]; 4 h p.i., n = 4)?
The value was 3.42.

What about the “Stability in human serum” value [3] of the same compound?
Its value is 96%.
